In patent US20220048967A1 (published 2022):
Numbered stars: 1 amine (or outer) side, 2 acyl side, 3 side chain; on linkers, the order of the positions; unused ones are H or OH. Square brackets hold non-standard residues; d marks the D form. Side chains are listed from the residue outwards. Ends that are not written are not given here. * marks the point of attachment. C20 diacid = O=C(O)CCCCCCCCCCCCCCCCCCC(=O)*; αMePhe(2-F) = C[C@](N)(Cc1ccccc1F)C(=O)O; γGlu = O=C(O)[C@H](CCC(=O)[*:2])N[*:1]; αMeF = C[C@](N)(Cc1ccccc1)C(=O)O; AEEA = NCCOCCOCC(=O)O; Aib = CC(C)(N)C(=O)O

T1: human gastric inhibitory peptide receptor (GIPR) (human, UniProt P48546 22-466)
T1 sequence (looked up): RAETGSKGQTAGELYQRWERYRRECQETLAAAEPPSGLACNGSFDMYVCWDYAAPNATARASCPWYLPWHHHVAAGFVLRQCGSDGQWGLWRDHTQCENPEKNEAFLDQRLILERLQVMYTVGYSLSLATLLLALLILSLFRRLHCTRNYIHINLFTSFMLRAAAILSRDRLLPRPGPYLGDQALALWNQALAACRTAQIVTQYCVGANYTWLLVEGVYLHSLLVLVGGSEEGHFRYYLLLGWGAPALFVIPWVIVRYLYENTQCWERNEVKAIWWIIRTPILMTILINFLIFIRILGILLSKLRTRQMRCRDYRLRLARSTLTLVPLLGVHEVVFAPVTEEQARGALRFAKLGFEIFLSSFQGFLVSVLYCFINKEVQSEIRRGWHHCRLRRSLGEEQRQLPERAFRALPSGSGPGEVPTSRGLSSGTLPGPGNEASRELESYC


Experiments:
[1] = molecular target: T1, human gastric inhibitory peptide …; experiment: cell-based or functional assay
[2] = molecular target: human GLP-1 receptor (GLP-1R) (human, UniProt P43220 24-463); experiment: cell-based or functional assay

Binder | hGIPR cAMP EC50 ratio [1] | hGIPR cAMP Rel EC50 [1] [nM] | hGLP1R cAMP EC50 ratio [2] | hGLP1R cAMP Rel EC50 [2] [nM]
Y[Aib]EGT[αMePhe(2-F)]TSDHSI[αMeF]LDEK([AEEA-AEEA-γGlu-C20 diacid])AQ[Aib]TFI[dE]YLIEGGPSSG-NH2 (N-terminus assumed; SMILES CC[C@H](C)[C@H](NC(=O)[C@H](CC(C)C)NC(=O)[C@H](Cc1ccc(O)cc1)NC(=O)[C@@H](CCC(=O)O)NC(=O)[C@@H](NC(=O)[C@H](Cc1ccccc1)NC(=O)[C@@H](NC(=O)C(C)(C)NC(=O)[C@H](CCC(N)=O)NC(=O)[C@H](C)NC(=O)[C@H](CCCCNC(=O)COCCOCCNC(=O)COCCOCCNC(=O)CC[C@H](NC(=O)CCCCCCCCCCCCCCCCCCC(=O)O)C(=O)O)NC(=O)[C@H](CCC(=O)O)NC(=O)[C@H](CC(=O)O)NC(=O)[C@H](CC(C)C)NC(=O)[C@](C)(Cc1ccccc1)NC(=O)[C@@H](NC(=O)[C@H](CO)NC(=O)[C@H](Cc1c[nH]cn1)NC(=O)[C@H](CC(=O)O)NC(=O)[C@H](CO)NC(=O)[C@@H](NC(=O)[C@](C)(Cc1ccccc1F)NC(=O)[C@@H](NC(=O)CNC(=O)[C@H](CCC(=O)O)NC(=O)C(C)(C)NC(=O)[C@@H](N)Cc1ccc(O)cc1)[C@@H](C)O)[C@@H](C)O)[C@@H](C)CC)[C@@H](C)O)[C@@H](C)CC)C(=O)N[C@@H](CCC(=O)O)C(=O)NCC(=O)NCC(=O)N1CCC[C@H]1C(=O)N[C@@H](CO)C(=O)N[C@@H](CO)C(=O)NCC(N)=O) [Example 167] | 0.291 | 0.617 | 0.0487 | 1.2
H[Aib]EGT[αMePhe(2-F)]TSDYSI[αMeF]LDEK([AEEA-AEEA-γGlu-C20 diacid])AQ[Aib]EFIEYLIEGGPSSGAPPPS-NH2 (N-terminus assumed; SMILES CC[C@H](C)[C@H](NC(=O)[C@H](CC(C)C)NC(=O)[C@H](Cc1ccc(O)cc1)NC(=O)[C@H](CCC(=O)O)NC(=O)[C@@H](NC(=O)[C@H](Cc1ccccc1)NC(=O)[C@H](CCC(=O)O)NC(=O)C(C)(C)NC(=O)[C@H](CCC(N)=O)NC(=O)[C@H](C)NC(=O)[C@H](CCCCNC(=O)COCCOCCNC(=O)COCCOCCNC(=O)CC[C@H](NC(=O)CCCCCCCCCCCCCCCCCCC(=O)O)C(=O)O)NC(=O)[C@H](CCC(=O)O)NC(=O)[C@H](CC(=O)O)NC(=O)[C@H](CC(C)C)NC(=O)[C@](C)(Cc1ccccc1)NC(=O)[C@@H](NC(=O)[C@H](CO)NC(=O)[C@H](Cc1ccc(O)cc1)NC(=O)[C@H](CC(=O)O)NC(=O)[C@H](CO)NC(=O)[C@@H](NC(=O)[C@](C)(Cc1ccccc1F)NC(=O)[C@@H](NC(=O)CNC(=O)[C@H](CCC(=O)O)NC(=O)C(C)(C)NC(=O)[C@@H](N)Cc1c[nH]cn1)[C@@H](C)O)[C@@H](C)O)[C@@H](C)CC)[C@@H](C)CC)C(=O)N[C@@H](CCC(=O)O)C(=O)NCC(=O)NCC(=O)N1CCC[C@H]1C(=O)N[C@@H](CO)C(=O)N[C@@H](CO)C(=O)NCC(=O)N[C@@H](C)C(=O)N1CCC[C@H]1C(=O)N1CCC[C@H]1C(=O)N1CCC[C@H]1C(=O)N[C@@H](CO)C(N)=O) [Example 163] | 1.29 | 0.121 | 1.54 | 0.0316
Y[Aib]EGT[αMePhe(2-F)]TSDHSI[αMeF]LDEK([AEEA-AEEA-γGlu-γGlu-C20 diacid])AQ[Aib]TFI[dE]HLIEGGPSSG-NH2 (N-terminus assumed; SMILES CC[C@H](C)[C@H](NC(=O)[C@H](CC(C)C)NC(=O)[C@H](Cc1c[nH]cn1)NC(=O)[C@@H](CCC(=O)O)NC(=O)[C@@H](NC(=O)[C@H](Cc1ccccc1)NC(=O)[C@@H](NC(=O)C(C)(C)NC(=O)[C@H](CCC(N)=O)NC(=O)[C@H](C)NC(=O)[C@H](CCCCNC(=O)COCCOCCNC(=O)COCCOCCNC(=O)CC[C@H](NC(=O)CC[C@H](NC(=O)CCCCCCCCCCCCCCCCCCC(=O)O)C(=O)O)C(=O)O)NC(=O)[C@H](CCC(=O)O)NC(=O)[C@H](CC(=O)O)NC(=O)[C@H](CC(C)C)NC(=O)[C@](C)(Cc1ccccc1)NC(=O)[C@@H](NC(=O)[C@H](CO)NC(=O)[C@H](Cc1c[nH]cn1)NC(=O)[C@H](CC(=O)O)NC(=O)[C@H](CO)NC(=O)[C@@H](NC(=O)[C@](C)(Cc1ccccc1F)NC(=O)[C@@H](NC(=O)CNC(=O)[C@H](CCC(=O)O)NC(=O)C(C)(C)NC(=O)[C@@H](N)Cc1ccc(O)cc1)[C@@H](C)O)[C@@H](C)O)[C@@H](C)CC)[C@@H](C)O)[C@@H](C)CC)C(=O)N[C@@H](CCC(=O)O)C(=O)NCC(=O)NCC(=O)N1CCC[C@H]1C(=O)N[C@@H](CO)C(=O)N[C@@H](CO)C(=O)NCC(N)=O) [Example 162] | 0.0393 | 4.56 | 0.00161 | 36
YXEGTXTSDHSIXLDEKAQXTFIXYLIXGGPSSGAPPPS (Y-Aib-EGT-αMeF(2F)-TSDHSI-αMeF-LDEK((2-[2-(2-Amino-ethoxy)-ethoxy]-acetyl)2-(γ-Glu)-CO-(CH2)18-CO2H)AQ-Aib-TFI-(D-Glu)-YLI-(D-Glu)-GGPSSGAPPPS-NH2) [Example 164] | 0.0581 | 3.09 | 0.00373 | 15.6
YXEGTXTSDHSIXLDEKAQXTFIXYLIEGGPSSGAPPPS (Y-Aib-EGT-αMeF(2F)-TSDHSI-αMeF-LDEK((2-[2-(2-Amino-ethoxy)-ethoxy]-acetyl)2-(γ-Glu)-CO-(CH2)14-CO2H)AQ-Aib-TFI-(D-Glu)-YLIEGGPSSGAPPPS-NH2) [Example 170] | 0.185 | 0.569 | 0.00438 | 10.4
YXEGTXTSDHSIXLDEKAQXTFIXYLIEGGPSSGAPPPS (Y-Aib-EGT-αMeF(2F)-TSDHSI-αMeF-LDEK((2-[2-(2-Amino-ethoxy)-ethoxy]-acetyl)2-(γ-Glu)-CO-(CH2)16-CO2H)AQ-Aib-TFI-(D-Glu)-YLIEGGPSSGAPPPS-NH2) [Example 169] | 0.122 | 0.86 | 0.0136 | 3.37
